This note sets out measurements from article PMC3186216 (Biochemistry, 2010).

The target in the experiment is T1, calnexin (dog (endogenous in MDCK), UniProt P24643 21-593).
T1 sequence (looked up): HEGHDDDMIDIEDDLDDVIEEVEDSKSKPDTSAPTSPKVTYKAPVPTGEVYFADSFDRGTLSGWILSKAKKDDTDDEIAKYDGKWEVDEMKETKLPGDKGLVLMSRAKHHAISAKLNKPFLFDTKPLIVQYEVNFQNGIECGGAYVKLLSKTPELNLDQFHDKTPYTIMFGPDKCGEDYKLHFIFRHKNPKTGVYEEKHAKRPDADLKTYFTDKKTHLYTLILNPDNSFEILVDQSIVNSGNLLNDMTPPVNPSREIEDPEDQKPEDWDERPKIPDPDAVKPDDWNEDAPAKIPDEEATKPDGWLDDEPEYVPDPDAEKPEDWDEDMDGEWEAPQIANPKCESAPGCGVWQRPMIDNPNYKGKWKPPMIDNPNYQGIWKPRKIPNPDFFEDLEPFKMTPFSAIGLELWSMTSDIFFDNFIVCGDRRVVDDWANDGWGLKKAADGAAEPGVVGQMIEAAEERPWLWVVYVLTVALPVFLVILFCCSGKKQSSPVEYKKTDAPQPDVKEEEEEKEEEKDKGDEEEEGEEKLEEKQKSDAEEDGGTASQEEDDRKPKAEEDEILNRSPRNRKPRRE
The experiment is described as follows: co-IP.

B1: YFP-linked Na,K-ATPase β2 subunit (human), wild type (natural protein, UniProt P14415 1-290, looked up)
chain: MVIQKEKKSCGQVVEEWKEFVWNPRTHQFMGRTGTSWAFILLFYLVFYGFLTAMFTLTMWVMLQTVSDHTPKYQDRLATPGLMIRPKTENLDVIVNVSDTESWDQHVQKLNKFLEPYNDSIQAQKNDVCRPGRYYEQPDNGVLNYPKRACQFNRTQLGNCSGIGDSTHYGYSTGQPCVFIKMNRVINFYAGANQSMNVTCAGKRDEDAENLGNFVMFPANGNIDLMYFPYYGKKFHVNYTQPLVAVKFLNVTPNVEVNVECRINAANIATDDERDKFAGRVAFKLRINKT
modifications: N-glycans at all eight N-glycosylation sites; only the high-mannose form coprecipitated with calnexin
For B1, the “normalised amount coprecipitated, fold of that of YFP-β1” value was ~7 fold.
